What was measured:
[1] = rat; for Relative increase of PS vs ALB, blood nerve barrier / Relative increase of Vp vs ALB, blood nerve barrier / Residual endoneurial plasma volume (Vp) of the blood nerve barrier / PS values across the blood nerve and blood brain barrier: in vivo; for Permeability coefficient-surface area product (PS) of the blood nerve barrier: not told, iv
Procedure: (§1) Male Sprague-Dawley rats (24-weeks-old) (460-500 g) were obtained from Bio Lab (St. Paul) and were used to determine the PS and Vp measurements. All animals were kept for a minimum of 3 days under standard housing conditions and feeding schedules prior to the experiments.
Briefly, a bolus of PBS containing ^125 I labelled carrier molecule was injected rapidly into the catheterized brachial vein of pentobarbital anesthetized rats. Blood was sampled during the next 30, 60, or 240 minutes from the brachial artery, depending on the carrier molecule being evaluated. Prior to the sacrifice of the animal at time sequences of 60 or 120 seconds, the second isotope-labelled carrier molecule (^131 I) was administered intravenously to serve as the residual plasma volume indicator (Vp).
After the final blood sample was collected, the sciatic nerves were rapidly removed and desheathed. Similarly, the brain was removed followed by the meninges. The brain was dissected into the cortex, caudal putamen, hippocampus, thalamus, brain stem, and cerebellum. The tissue was then lyophilized, and the dry weight was determined with a microbalance. These weights were then converted to their respective wet weights with wet weight/dry weight ratios previously determined for desheathed rat sciatic nerve and for the different brain regions. Tissue and plasma samples were assayed for ^125 I and ^131 I radioactivity in a 2-channel gamma counter. Radioactivity was corrected for crossover of ^131 I activity into the ^125 I channel and background activity. The Vp and PS measurements were calculated as described previously in Poduslo et al., Proc. Natl. Acad. Sci. U.S.A., 89, 2218 (1992). […] Statistical evaluations were done using Student's two-tailed paired t-test. Significance was accepted at the p<0.05 level.

[2] = rat, in vivo
Procedure: as §1
Briefly, a bolus of PBS containing ^125 I labelled carrier molecule was injected rapidly into the catheterized brachial vein of pentobarbital anesthetized rats. Blood was sampled during the next 30, 60, or 240 minutes from the brachial artery, depending on the carrier molecule being evaluated. […]
After the final blood sample was collected, the sciatic nerves were rapidly removed and desheathed. […] The tissue was then lyophilized, and the dry weight was determined with a microbalance. These weights were then converted to their respective wet weights with wet weight/dry weight ratios previously determined for desheathed rat sciatic nerve and for the different brain regions. Tissue and plasma samples were assayed for ^125 I and ^131 I radioactivity in a 2-channel gamma counter. Radioactivity was corrected for crossover of ^131 I activity into the ^125 I channel and background activity. The Vp and PS measurements were calculated as described previously in Poduslo et al., Proc. Natl. Acad. Sci. U.S.A., 89, 2218 (1992). […]

For calmodulin, the “Relative increase of PS vs ALB, blood nerve barrier” value (from here on “Relative increase of PS vs ALB”) [1] was 211.3, the “Relative increase of Vp vs ALB, blood nerve barrier” value (shortened to “Relative increase of Vp vs ALB”) [1] was 0.9 and the “Residual endoneurial plasma volume (Vp) of the blood nerve barrier” value (“Residual endoneurial plasma volume (Vp)” below) [1] was 1.66 ± 0.32 µL/g. For the same substance, the “Permeability coefficient-surface area product (PS) of the blood nerve barrier” value [1] was 21.34 ± 3.40 ml/g/sec × 10^6.

With ceruloplasmin the “PS values across the blood nerve and blood brain barrier” value [1] was 1-10 ×10^-6 ml/g/sec, the “Relative increase of PS vs ALB” value [1] was 82.4 and the “Relative increase of Vp vs ALB” value [1] was 1.0. For the same substance, the “Residual endoneurial plasma volume (Vp)” value [1] was 1.98 ± 0.38 µL/g.

For cytochrome c, the “PS values across the blood nerve and blood brain barrier” value [1] was 1-10 ×10^-6 ml/g/sec, the “Relative increase of PS vs ALB” value [1] was 73.6 and the “Relative increase of Vp vs ALB” value [1] was 1.0. For the same substance, the “Residual endoneurial plasma volume (Vp)” value [1] was 1.96 ± 0.32 µL/g and the “Permeability coefficient-surface area product (PS) of the blood nerve barrier” value [1] was 7.43 ± 3.68 ml/g/sec × 10^6.

For hemoglobin, the “PS values across the blood nerve and blood brain barrier” value [1] was 1-10 ×10^-6 ml/g/sec, the “Relative increase of PS vs ALB” value [1] was 65.3 and the “Relative increase of Vp vs ALB” value [1] was 1.0. For the same substance, the “Residual endoneurial plasma volume (Vp)” value [1] was 1.91 ± 0.35 µL/g and the “Permeability coefficient-surface area product (PS) of the blood nerve barrier” value [1] was 6.60 ± 1.33 ml/g/sec × 10^6.

For lysozyme, the “PS values across the blood nerve and blood brain barrier” value [1] was 1-10 ×10^-6 ml/g/sec, the “Relative increase of PS vs ALB” value [1] was 66.4 and the “Relative increase of Vp vs ALB” value [1] was 1.3. For the same substance, the “Residual endoneurial plasma volume (Vp)” value [1] was 2.57 ± 0.52 µL/g and the “Permeability coefficient-surface area product (PS) of the blood nerve barrier” value [1] was 6.71 ± 1.65 ml/g/sec × 10^6.

For substance P [SP], the “Residual endoneurial plasma volume (Vp)” value [1] was 14.87 ± 3.53 µL/g, the “PS values in the different brain regions” value [2] was 27.68-36.53 ×10^-6 ml/g/s and the “Vp values in the different brain regions” value [2] was 11.03 to 21.29 µL/g.

In the case of ubiquitin, the “Relative increase of PS vs ALB” value [1] is reported as 228.9, the “Relative increase of Vp vs ALB” value [1] is reported as 0.9 and the “Residual endoneurial plasma volume (Vp)” value [1] is reported as 1.84 ± 0.51 µL/g.
